In ChEMBL document CHEMBL1250451, “Mechanistic insights into a Ca2+-dependent family of alpha-mannosidases in a human gut symbiont” (Nat Chem Biol, 2010):

Columns and labels:
Assay type in all cases: protein assay
[1] = substrate: O=[N+]([O-])c1ccc(O[C@H]2O[C@H](CO)[C@@H](O)[C@H](O)[C@@H]2O)cc1; experiment: Ratio of Kcat to Km for Bacteroides thetaiotaomicron GH92 alpha-mannosidase GH92 alpha-mannosidase 3130 assessed as mannose release after 16 hrs by HPLC
[2] = substrate: O=[N+]([O-])c1ccc(O[C@H]2O[C@H](CO)[C@@H](O)[C@H](O)[C@@H]2O)cc1; experiment: Activity of Bacteroides thetaiotaomicron GH92 alpha-mannosidase GH92 alpha-mannosidase 3130 assessed as mannose release after 16 hrs by HPLC
[3] = substrate: O=[N+]([O-])c1ccc(O[C@H]2O[C@H](CO)[C@@H](O)[C@H](O)[C@@H]2O)cc1; experiment: Ratio of Kcat to Km for Bacteroides thetaiotaomicron GH92 alpha-mannosidase GH92 alpha-mannosidase 3963 assessed as mannose release after 16 hrs by HPLC
[4] = substrate: O=[N+]([O-])c1ccc(O[C@H]2O[C@H](CO)[C@@H](O)[C@H](O)[C@@H]2O)cc1; experiment: Activity of Bacteroides thetaiotaomicron GH92 alpha-mannosidase GH92 alpha-mannosidase 3963 assessed as mannose release after 16 hrs by HPLC
[5] = substrate: O=[N+]([O-])c1ccc(O[C@H]2O[C@H](CO)[C@@H](O)[C@H](O)[C@@H]2O)cc1; experiment: Ratio of Kcat to Km for Bacteroides thetaiotaomicron GH92 alpha-mannosidase GH92 alpha-mannosidase 2948 assessed as mannose release after 16 hrs by HPLC
[6] = substrate: O=[N+]([O-])c1ccc(O[C@H]2O[C@H](CO)[C@@H](O)[C@H](O)[C@@H]2O)cc1; experiment: Ratio of Kcat to Km for Bacteroides thetaiotaomicron GH92 alpha-mannosidase GH92 alpha-mannosidase 3858 assessed as mannose release after 16 hrs by HPLC
[7] = substrate: O=[N+]([O-])c1ccc(O[C@H]2O[C@H](CO)[C@@H](O)[C@H](O)[C@@H]2O)cc1; experiment: Activity of Bacteroides thetaiotaomicron GH92 alpha-mannosidase GH92 alpha-mannosidase 3858 assessed as mannose release after 16 hrs by HPLC
[8] = substrate: O=[N+]([O-])c1ccc(O[C@H]2O[C@H](CO)[C@@H](O)[C@H](O)[C@@H]2O)cc1; experiment: Activity of Bacteroides thetaiotaomicron GH92 alpha-mannosidase 1032 assessed as mannose release after 16 hrs by HPLC
[9] = substrate: O=[N+]([O-])c1ccc(O[C@H]2O[C@H](CO)[C@@H](O)[C@H](O)[C@@H]2O)cc1; experiment: Ratio of Kcat to Km for Bacteroides thetaiotaomicron GH92 alpha-mannosidase 1032 assessed as mannose release after 16 hrs by HPLC
[10] = substrate: O=[N+]([O-])c1ccc(O[C@H]2O[C@H](CO)[C@@H](O)[C@H](O)[C@@H]2O)cc1; experiment: Activity of Bacteroides thetaiotaomicron GH92 alpha-mannosidase GH92 alpha-mannosidase 1878 assessed as mannose release after 16 hrs by HPLC
[11] = substrate: O=[N+]([O-])c1ccc(O[C@H]2O[C@H](CO)[C@@H](O)[C@H](O)[C@@H]2O)cc1; experiment: Ratio of Kcat to Km for Bacteroides thetaiotaomicron GH92 alpha-mannosidase GH92 alpha-mannosidase 1878 assessed as mannose release after 16 hrs by HPLC

B1: Alpha-1,2-mannosidase, putative (BT_3130) (Bacteroides thetaiotaomicron), Q8A325 (protein)
chain: MKKLLLSVCAFSLTLATLQAGEITKYVNPFIGTGAIDGGLSGNNYPGATSPFGMIQLSPDTSEAPNWGDASGYDYNRNTIFGFSHTRLSGTGASDLIDITLMPTSSGRTSSAFTHDEEKARPGYYQVMLKDENINAELTTTQRNGIHRYQYPAGKDAEIILDMDHSADKGSWGRRIINSQIRILNDHAVEGYRIITGWAKLRKIYFYMEFSSPILTSTLRDGGRVHENTAVINGTNLHGCFRFGQLNGKPLTCKVALSSVSMENARQNMEQEAPHWDFDRYVAAADADWEKQLGKIEVKGTEVQKEIFYTALYHTMIQPNTMSDVNGEYMAADYTTRKVANNETHYTTFSLWDTFRASHPLYTLLEPERVTDFVKSMIRQYEYYGYLPIWQLWGQDNYCMIGNHSIPVITDAILKGIPGIDMEKAYEAVYNSSVTSHPNSPFEVWEKYGFMPENIQTQSVSITLEQAFDDWCVAQLAAKLNKDADYQRFHKRSEYYRNLFHPKTKFFQSKNDKGEWIEPFDPYQYGGNGGHPFTEGNAWQYFWYVPHNIQALMELTGGTKAFEQKLDTFFTSTYKSEQMNHNASGFVGQYAHGNEPSHHVAYLYNFAGQPWKTQKYVSHILNTLYNNTSSGYAGNDDCGQMSAWYVFSAMGFYPVNPADGRYIIGSPLLDECTLKLAGNKEFRIRTIRKSPEDIYIQSVTLNGKKHKDFFITHQDIMNGGTMVFKMGKKPSGWGK
- kcat/Km [1]: 112000 M⁻¹ s⁻¹
- Km [2]: 510 µM
- kcat [2]: 56.7 s⁻¹

B2: Glycoside hydrolase family 92 (BT_3963) (Bacteroides thetaiotaomicron), Q8A0Q8 (protein)
chain: MNKMKKKVLMMTMAAVTLSAVAQQPVDYVNPIIGTNGMGHTFPGACTPFGWVQLSPDTDTIPHNVNGAYQKNAYEYCAGYQYRDKTIVGFSHTHLSGTGHSDLGDILLMPAVGDVKLNPGRADHPEEGYRSRFDHATEKATPGYYEVMLDDYGIKAQLTATQRTGVHKYTFPKGKDGHLILDLVHGIYNYDGKVLWANLRVENDTLLTGYRITNGWARTNYTYFAISLSQPIKDYGYKDKEKVLYNGFWRRFKLEKNFPEITGRKIVAYFNFETAKDPELVVKVALSAVSTEGAVKNLRAEASGKSFEQLAEAARTDWNNELDHFEIEGTPDQKAMFYTSLYHTMINPSVYMDVDGSYRGLDHNIHQAKGFTNYTIFSLWDTYRAEHPFLNLVKPERNADMVESMIKHEQQSVHGMLPIWSLMGNENWCMSGYHAVSVLADAITKGVFSNVDEALSAMVSTSTVPYYEGVADYMKLGYIPLDKSGTAASSTLEYAYDDWTIYQTALKAGNKEIADTYRKRALNYRNIYDTSIGFARPRYSDGTFKKEFDVLQTYGEGFIEGNSWNFSFHVPHDVFGMIDLMGGEKTFVQKLDELFSMHLPEKYYEHNEDITEECLVGGYVHGNEPSHHVPYLYAWTSQPWKTQYWLREILNKMYKNDINGLGGNDDCGQMSAWYLFSVMGFYPVCPGTDQYVLGAPYLPYLKLTLPNGKTLEIKAPGVSDKKRYVQSLKLNGESYDKMYITHEDILKGGVLEFKMSASPNKRRGVSVQDKPYSLTNGIN
- kcat/Km [3]: 0.567 M⁻¹ s⁻¹
- Km [4]: 790 µM
- kcat [4]: 0.00045 s⁻¹

B3: Alpha-1,2-mannosidase (BT_2948) (Bacteroides thetaiotaomicron), Q8A3K6 (protein)
chain: MKMKLLILAVLPFLTPINMNSQEEKASWVQYVNPLIGTEVWQSGVAVAGHEDPSGYTFPGVTEPFGMTEWTAHTLESKHAGTLHHRVPYWYKHNYISGFMGTHYPSGAVMFDYGAVELMPVVGQLKCRPEERSSSFTHITEKSKPHFYEVMLDDYQVKAQLSATKTSAILQFTYPQSDSAYVVVDAMPSMFTAGAPGYIHIDPVRKEISGKSIQSARGYRETGYFVVRFDKDFDSFGTFNLNNDYPEVIEEKYLFTQKEGKWVNGLKGIYTQDSKGVGHLRSEKIDPVIDFDWDWYKPADDFSFNDYQVTWSGKLKAPSTGEYTLGIQADDGARLYINGELLIDDWKSHSFSYQPTQKKISLEAGKMYDIKLEYYQHEWSSRIKLSWIRPDKKSSTSLLTGNRHLESSTKIGGYIRFKTGKNEVIKAIVGTSFISVEQARINLEREIGAKSMETISAQTEALWNKELSVIDLPGATEQDKIVFYTALYHSFLLPRSLSEDGKYRSPFDGKVHKGISFTDYSIWDTFRATHPLFVLLKPDFAGDLITGLLHAYDEGGWLPKWPNPGYTNCMMGTHSDAIIADAYVKGVRNFDVEKAKKAVLKNAYEKGNHIAWGRLGIMDYERLGYVPVDKYGESVARTMEFAYDDYCLSRFFAEKGEPDLSDKLGKRSKNFRNVLDKETKMVRARKADGSWSNPEDYDISVWSGFNPKGVYNYKKNYTLFVPHDVPELIRFLGGTDSLAVFMDELFDKDIYYVGDEFVMHAPYMYNLCKRPWMTQKRIYDIVNKYYLPTPSGLPGNDDCGQLSSWYIFSAMGFYPMCPASIEYQLGVPCLPGFVLHLPQNRTFTIKTKNFGKGNCYVRAVYLNGKPHRSSVITHSDIINGGEILFELTDKPAYNWFQ
- kcat/Km [5]: 42.7 M⁻¹ s⁻¹

B4: Alpha-1,2-mannosidase (BT_3858) (Bacteroides thetaiotaomicron), Q8A113 (protein)
chain: MMMNRLNIKRTVGSCLMAMAFFSCTHTDQTPTKDFVDYVNPYIGNISHLLVPTYPTVHLPNSMLRVYPERGDYTSDRVNGLPVVVTSHRGSSAFNLSPVQGEVSRPIVSYSYDLENITPYSYSVYLDEADIQVEYAPSHQAGIYHISFGTEGDNALVVNTKNGKLVAEEKGVSGYQVIDNTPTKIYLYLETSQLPLRKGVLADGKVDMESKEGSAIALYYGSEKNLNLRYGISFISAEQAKKNLQRDITTYDVKAVADAGRRIWNKTLGKIVIEGGSEDEKEIFYTSLYRTYERMINLSEDGKYYSAFDGKIHEDGGVPFYTDDWIWDTYRATHPLRILIEPQKELDMIRSYIRMAEQSDRRWMPTFPEVTGDSHRMNGNHAVAVIWDAYCKGLKDFDLEAAYEACKGAITEKTLLPWLRCPLTELDKFYQEKGFFPALNPGEEETCKAVHSFERRQAVAVMLGNCYDNWCLAQIARTLNKTDDYKKFMRMSYTYRNVYNAETGFFHPKNKDGKFIEPFDYRYSGGQGARGYYGENNGWIYRWDVQHNPADLIALMGGQASFIERLNQTFNEPLGRSKFDFYHQLPDHTGNVGQFSMANEPCLHIPYLYNYAGQPWMTQKRIRVLLNQWFRNDLMGVPGDEDGGGMTAFVVFSMMGFYPVTPGSPTYNIGSPVFQSAKMEVGDGHYFEIIAENYAPDHKYIQSATLNGTPWNKPWFSHADIQNGGRLVLQMGDKPNKKWGIASDAVPPSSESLPE
- kcat/Km [6]: 1.57 M⁻¹ s⁻¹
- Km [7]: 270 µM
- kcat [7]: 0.000417 s⁻¹

B5: Alpha-1,2-mannosidase family protein (BT_1032) (Bacteroides thetaiotaomicron), Q8A8Y5 (protein)
chain: MRRILLTCTLAFTLLPVFGGEGKAPPMDKEKSLLIDYVDPFIGTTNFGTTNPGAVCPNGMMSVVPFNVMGSADNTYDKDARWWSTPYEHTNCFFTGYSHVNLSGVGCPELGSLLLMPTTGELNVDYKEYGSKYKDEQASPGYYSNYLTKYNIKTEVSATPRTGIARFTFPKGESHILLNLGEGLTNESGAMLRRVSDSEIEGMKLLGTFCYNPQAVFPIYFVMRVNKVPATTGYWKKQRPMTGVEAEWDRDQGKYKLYTRYGKEIAGDDVGAYFTFETEEGEQVEVQMGVSFVSIENARLNLDKEQSGKNFEQVLSDARAQWNDDLSRITVEGGTDAQKTVFYTALYHLLIHPNVLQDVNGEYPAMESDQILTTKGTRYTVFSLWDTYRNVHQLLTLVYPERQMEMVRTMLDMYREHGWFPKWELYGRETLTMEGDPSIPVIVDTWMKGLRDFDVDLAYEAMYKSATLPGAENLMRPDNDDYMSKGYVPLREQYDNSVSHALEYYIADFALSRFADALGKKKDAEMFYKRSLGYKHYYSKEFGTFRPILPDGTFYSPFNPRQGENFEPNPGFHEGNSWNYTFYVPHDVYGLAKLMGGKKPFVNKLQMVFDEGLYDPANEPDIAYAHLFSYFKGEEWRTQKETQRLLDKYFTTKPDGIPGNDDTGTMSAWAIFNMIGFYPDCPGLPEYALTTPVFNKVTIRLDPKWYKENELVIESNRTGSETLYINKVLLDGKKFNKYRITHDELVHGKRLIFDLK
- Km [8]: 1700 µM
- kcat [8]: 0.006 s⁻¹
- kcat/Km [9]: 3.5 M⁻¹ s⁻¹

B6: Alpha-1,2-mannosidase (BT_1878) (Bacteroides thetaiotaomicron), Q8A6K3 (protein)
chain: MIIMKRKSPVMAVALAGLFMYTSCSPTEQAETKDYTQYVNTFIGAADNGHTFPGACYPFGMIQTSPVTGAVGWRYCSEYTYQDSLIWGFTQTHLNGTGCMDLGDILVMPVTGTRARAWDAYRSHFPKDKEAATPGYYTVELSDPQVKAELTASIHAALHRYTYHKADSASLLIDLQHGPAWREEQYHSQVNSCEVNWEDAQTLAGHVNNTVWVDQDYFFVMKFNRPVIDSLYLPMGETEKGKRIIATFDLKPGDELMMKVALSTTSVEGAKKNLQAEIPDWNFDGVKLAAHDEWNSYLSRMDVEGTDDEKTNFYTCFYHALIQPNQISDVDGMYRNAADSIVKAGTGTFYSTFSLWDTYRAAHPFYTLMVPERVDDFVNSLIEQGEVQGFLPIWALWGKENFCMIGNHGVSVIAEAYRKGFRGFDAERAFNMVKKTQTVSHPLKSDWEVYTKYGYFPTDLTKAESVSSTLESVYDDYAAADMARRMGKEEDAAYFAKRADYYKNLFDSQTNFMRPRKADGTWKSPFNPSDVGHAESTGGDYTEGNAWQYTWHVQHDVPGLIALFGGEEPFLNKLDSLFTVKLETTQADVTGLIGQYAHGNEPSHHVTYLYALAGRPERTQELIREIFDTQYKNKPDGLCGNDDCGQMSAWYMFSAMGFYPVDPVSGDYVFGAPQLPKIVLHLADGKTFTVIAENLSKEHKYVDSITLNGEPYTKNTISHEDILKGGTLVYKMK
- Km [10]: 900 µM
- kcat [10]: 0.00133 s⁻¹
- kcat/Km [11]: 1.48 M⁻¹ s⁻¹
